Experimental data: patent US20230212587A1, “Mutant Hydroxyphenylpyruvate Dioxygenase Polypeptide, Encoding Gene Thereof and Use Therefor” (Beijing Dabeinong Biotechnology Co., Ltd., priority 2019, published 2023)

B1: N3HPPDm-F372A-02: Burkholderia sp. N3 HPPD mutant F372A, SEQ ID NO: 162 (protein)
chain: MQIPNWENPVGTDGFEFIEYTAPDPKALGQLFERMGFTAIARHRHKDVTVYRQGDINFIINAEPHSFAQRFARLHGPSICAIAFRVQDAAKAYQHALELGAWGFDNKTGPMELNIPAIKGIGDSLIYFVDRWRGKNGAQPGAIGDISIYDVDFEPIAGANPNPAGHGLTYIDHLTHNVHRGRMQEWAEFYERLFNFREVRYFDIEGKVTGVKSKAMTSPCGKIRIPINEEGSDTAGQIQEYLDAYHGEGIQHIALGTNDIYGAVDGLRGKEVKLLDTIDTYYELVDRRVPDHGESLDELKKRKILIDGARDDLLLQIATENQIGPIFFEIIQRKGNQGFGEGNFKALFESIELDQIRRGVVQDKA
modifications: N3HPPDm-F372A Amino Acid Sequence
B2: N4HPPD-02: native Burkholderia sp. N4 HPPD, SEQ ID NO: 165 (protein)
chain: MQIPNWENPVGTDGFEFIEYTAPDPKALGQLFERMGFTAIARHRHKDVTVYRQGDINFIINAEPDSFAQRFARLHGPSICAIAFRVQDAAKAYQHALELGAWGFDNKTGPMELNIPAIKGIGDSLIYFVDRWRGKNGAQPGAIGDISIYDVDFEPIAGATPNPAGHGLTYIDHLTHNVHRGRMQEWAEFYERLFNFREVRYFDIEGKVTGVKSKAMTSPCGKIRIPINEEGSDTAGQIQEYLDAYHGEGIQHIALGTSDIYGAVDGLRGKEVKLLDTIDTYYELVDRRVPDHGESLDELKKRKILIDGARDDLLLQIFTENQIGPIFFEIIQRKGNQGFGEGTFKALFESIELDQIRRGVVQDKA
modifications: N4HPPD Amino Acid Sequence (Burkholderia)
B3: N4HPPDm-F372A-02: Burkholderia sp. N4 HPPD mutant F372A, SEQ ID NO: 168 (protein)
chain: MQIPNWENPVGTDGFEFIEYTAPDPKALGQLFERMGFTAIARHRHKDVTVYRQGDINFIINAEPDSFAQRFARLHGPSICAIAFRVQDAAKAYQHALELGAWGFDNKTGPMELNIPAIKGIGDSLIYFVDRWRGKNGAQPGAIGDISIYDVDFEPIAGATPNPAGHGLTYIDHLTHNVHRGRMQEWAEFYERLFNFREVRYFDIEGKVTGVKSKAMTSPCGKIRIPINEEGSDTAGQIQEYLDAYHGEGIQHIALGTSDIYGAVDGLRGKEVKLLDTIDTYYELVDRRVPDHGESLDELKKRKILIDGARDDLLLQIATENQIGPIFFEIIQRKGNQGFGEGTFKALFESIELDQIRRGVVQDKA
modifications: N4HPPDm-F372A Amino Acid Sequence
B4: N5HPPD-02: native Sphingobium sp. N5 HPPD, SEQ ID NO: 171 (protein)
chain: MAADSENPLGLHGFAFAEFTSPDPAAMARQFEQLGFVPAARRKDRGLTLYRQGRIAFILNAGEGEQASAFRAAHGPSANGMAFNVADAKAAHRHAIQSGATDADTAQSALPGTYAIEGIGDSLLYLVDSDPFADWDEVPGWREASAERGVGLDLLDHLTHNVRRGQMRVWSEFYATLFGFEEQKFFDIKGQATGLFSQAMIAPDHEIRIPLNESQDDNSQIEEFIREYNGEGIQHLALTTPDIYSTVEKLRANGVRLQDTIDTYYDLVDERVPGHGEDLARLRKNRILIDGDVHDEGLLLQIFTETMFGPIFFEIIQRKGNEGFGNGNFQVLFESIELDQIRRGVVTVDA
modifications: N5HPPD Amino Acid Sequence (Burkholderia)
B5: N5HPPDm-F372A-02: Sphingobium sp. N5 HPPD mutant F372A, SEQ ID NO: 174 (protein)
chain: MAADSENPLGLHGFAFAEFTSPDPAAMARQFEQLGFVPAARRKDRGLTLYRQGRIAFILNAGEGEQASAFRAAHGPSANGMAFNVADAKAAHRHAIQSGATDADTAQSALPGTYAIEGIGDSLLYLVDSDPFADWDEVPGWREASAERGVGLDLLDHLTHNVRRGQMRVWSEFYATLFGFEEQKFFDIKGQATGLFSQAMIAPDHEIRIPLNESQDDNSQIEEFIREYNGEGIQHLALTTPDIYSTVEKLRANGVRLQDTIDTYYDLVDERVPGHGEDLARLRKNRILIDGDVHDEGLLLQIATETMFGPIFFEIIQRKGNEGFGNGNFQVLFESIELDQIRRGVVTVDA
modifications: N5HPPDm-F372A Amino Acid Sequence
B6: TaHPPDm-F372A-02: Triticum aestivum HPPD mutant F372A, SEQ ID NO: 42 (protein)
chain: MPPTPTTPAATGAGAAAAVTPEHARPRRMVRFNPRSDRFHTLSFHHVEFWCADAASAAGRFAFALGAPLAARSDLSTGNSVHASQLLRSGNLAFLFTAPYANGCDAATASLPSFSADAARRFSADHGLAVRSIALRVADAAEAFRASVDGGARPAFSPVDLGRGFGFAEVELYGDVVLRFVSHPDGTDVPFLPGFEGVSNPGAVDYGLTRFDHVVGNVPELASAAAYVAGFTGFHEFAEFTTEDVGTAESGLNSMVLANNSEGVLLPLNEPVHGTKRRSQIQTFLEHHGGPGVQHIAVASSDVLRTLREMRARSAMGGFDFLPPPLPKYYEGVRRIAGDVLSEAQIKECQELGVLVDRDDQGVLLQIATKPVGDRPTLFLEMIQRIGCMEKDERGEEYQKGGCGGFGKGNFSELFKSIEDYEKSLEAKQSAAVQGS
modifications: TaHPPDm-F372A Amino Acid Sequence

Tested on: Arabidopsis thaliana T1 plants
Test: Topramezone tolerance of transgenic Arabidopsis thaliana T1 plants (pesticide damage grade by bleached leaf area, score, resistance evaluation)
Format: in vivo
Conditions: HPPDs from different species, 7 DAT; for Classification and statistics of pesticide damage grade Grade 0 / Classification and statistics of pesticide damage grade Grade 1 / Classification and statistics of pesticide damage grade Grade 2 / Classification and statistics of pesticide damage grade Grade 3: number of plants (of 16) in this grade; for Scores: score for pesticide damage 0-100
In short: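 Herbicide tolerance was judged per plant on a bleaching scale (grade 0 no bleaching to grade 3 fully bleached) 7 DAT. Topramezone doses were 0, 25, 50 and 100 g ai/ha on 18-day-old T1 and wild-type plants.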

Row | Molecule | Classification and statistics of pesticide damage grade Grade 0 (topramezone 25 g ai/ha (1x)) | Classification and statistics of pesticide damage grade Grade 1 (topramezone 25 g ai/ha (1x)) | Classification and statistics of pesticide damage grade Grade 2 (topramezone 25 g ai/ha (1x)) | Classification and statistics of pesticide damage grade Grade 3 (topramezone 25 g ai/ha (1x)) | Classification and statistics of pesticide damage grade Grade 0 (topramezone 100 g ai/ha (4x)) | Classification and statistics of pesticide damage grade Grade 1 (topramezone 100 g ai/ha (4x)) | Classification and statistics of pesticide damage grade Grade 2 (topramezone 100 g ai/ha (4x)) | Classification and statistics of pesticide damage grade Grade 3 (topramezone 100 g ai/ha (4x)) | Scores (topramezone 25 g ai/ha (1x)) | Scores (topramezone 100 g ai/ha (4x)) | Resistance evaluation (topramezone 25 g ai/ha (1x)) | Resistance evaluation (topramezone 100 g ai/ha (4x))
1 | B1 | 16 | 0 | 0 | 0 | 12 | 4 | 0 | 0 | 0 | 8 | highly resistant (highly resistant plants (scores 0-15)) | highly resistant (highly resistant plants (scores 0-15))
2 | B2 | 5 | 6 | 5 | 0 | 0 | 8 | 2 | 6 | 33 | 63 | moderately resistant (moderately resistant plants (scores 16-33)) | poorly resistant (poorly resistant plants (scores 34-67))
3 | B3 | 16 | 0 | 0 | 0 | 12 | 4 | 0 | 0 | 0 | 8 | highly resistant (highly resistant plants (scores 0-15)) | highly resistant (highly resistant plants (scores 0-15))
4 | B4 | 6 | 6 | 4 | 0 | 0 | 7 | 5 | 4 | 21 | 60 | moderately resistant (moderately resistant plants (scores 16-33)) | poorly resistant (poorly resistant plants (scores 34-67))
5 | B5 | 16 | 0 | 0 | 0 | 13 | 3 | 0 | 0 | 0 | 6 | highly resistant (highly resistant plants (scores 0-15)) | highly resistant (highly resistant plants (scores 0-15))
6 | B6 | 16 | 0 | 0 | 0 | 15 | 1 | 0 | 0 | 0 | 2 | highly resistant (highly resistant plants (scores 0-15)) | highly resistant (highly resistant plants (scores 0-15))
